What was measured:
[1] = biological target: human HER3 expressed on cells (human) (UniProt P21860); test: flow cytometry, HEK293T HER3 O/E cells, 10 ug antibody, FITC channel
[2] = biological target: human HER3:human NRG1 complex (human) (UniProt Q02297); test: BLI (Octet QK384), antibody on AHC sensors, human HER3-NRG1 complex (1:1 molar ratio) in solution, presence of human NRG1
[3] = biological target: recombinant human HER3 (human) (UniProt P21860); test: BLI (Octet QK384), antibody on AHC sensors, His-tagged human HER3 in solution, absence of human NRG1

Sequence of anti-HER3 antibody clone LJM716 (VH): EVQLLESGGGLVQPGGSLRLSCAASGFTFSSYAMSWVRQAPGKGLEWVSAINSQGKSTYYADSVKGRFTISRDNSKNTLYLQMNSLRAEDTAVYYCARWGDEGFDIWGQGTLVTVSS
Sequence of anti-HER3 antibody clone LJM716 (VL): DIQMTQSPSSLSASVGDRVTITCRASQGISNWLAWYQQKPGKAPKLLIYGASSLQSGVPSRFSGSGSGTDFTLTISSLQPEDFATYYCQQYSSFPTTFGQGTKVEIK

- % Parent (HER3 positive) [1]: 74.4%
- Kd [2]: 16.8 nM
- Kd [3]: < 0.001 nM
Substance: anti-HER3 antibody clone LJM716

Reference: patent US20210155712A1
